Test results reported in the DeepSol protein solubility set.

Assay: soluble on expression in E. coli; label from the status in PepcDB or PDB records

Sequence	soluble on expression in E. coli
MSNELPWQVWTPDDLAPPPETFVPVEADNVTLTEDTPEPELTAEQQLEQELAQLKIQAHEQGYNAGLAEGRQKGHAQGYQEGLAQGLEQGQAQAQTQQAPIHARMQQLVSEFQNTLDALDSVIASRLMQMALEAARQVIGQTPAVDNSALIKQIQQLLQQEPLFSGKPQLRVHPDDLQRVEEMLGATLSLHGWRLRGDPTLHHGGCKVSADEGDLDASVATRWQELCRLAAPGVL	not soluble
MENKLKLVVVGDTYTGKTSLLVAYTKKQFLDNYTTTVFDNWAVSVHIDNKNYAVNLFDTAGQGNYEQIRCLSYPHANVFLVCFSMIDRKTLESCRSTWIPEIRKYAGDNVPIMLVGTKNDLVDDADSRNTVTEDYAKRVAHEIGCHKFYSCSALTHKGLKRVFDESFLAAVGVKLEEETPNPCCTIL	not soluble
MIHLYDAKSFAKLRAAQYAAFHTDAPGSWFDHTSGVLESVEDGTPVLAIGVESGDAIVFDKNAQRIVAYKEKSVKAEDGSVSVVQVENGFMKQGHRGWLVDLTGELVGCSPVVAEFGGHRYASGMVIVTGKGNSGKTPLVHALGEALGGKDKYATVRFGEPLSGYNTDFNVFVDDIARAMLQHRVIVIDSLKNVIGAAGGNTTSGGISRGAFDLLSDIGAMAASRGCVVIASLNPTSNDDKIVELVKEASRSNSTSLVISTDVDGEWQVLTRTGEGLQRLTHTLQTSYGEHSVLTIHTSKQSGGKQASGKAIQTVIKNDELESVLRRLTSN	soluble
RSAFSKIESEEYNSLKSSTIQTIGTSDGGSGIGYIESGDYLVFNKINFGNGANSFKARVASGADTPTNIQLRLGSPTGTLIGTLTVASTGGWNNYEEKSCSITNTTGQHDLYLVFSGPVNIDYFIFDSNGVNP	soluble
MHHHHHHAMDTYKLFIVIGDRVVVVTTEAVDAATAEKVFKQYANDNGVDGEWTYDDAAKTFTVTE	soluble
MITTFETILDKIKAHQTIIIHRHQNPDPDALGSQAGLKEIIAQNFPDKKVLMTGFDEPSLAWISQMDQVTDKDYKEALVIITDTANRPRIDDERYTLGKCLIKIDHHPNDDVYGDFYYVDTSASSASEIIADFAFSQNLTLSDKAAKLLYTGIVGDTGRFLYASTTSKTLSIASQLRHFEFDFAAISRQMDSFPLKIAKLQSYVFEHLTIDESGAAYVLVSQETLKHFDVTLAESSAIVCAPGKIDNVQAWAIFVELTDGNYRVRMRSKEKIINGIAKRHGGGGHPLASGANSANLEENQAIFRELIAVCQEILEHHHHHH	soluble
MDYYYSLISPPCQSAILLAKKLGITLNLKKTNVHDPVERDALTKLNPQHTIPTLVDNGHVVWESYAIVLYLVETYAKDDTLYPKDPKVRSVVNQRLFFDIGTLYKRIIDVIHLVMKKEQPSDEQMEKLKGALDLLEQFVTERAYAAADHLTVADICLLGTVTALNWLKHDLEPFPHIRAWLERVRAEMPDYEEFSKQVADDTLAYVASRK	soluble
MQTFQADLAIVGAGGAGLRAAIAAAQANPNAKIALISKVYPMRSHTVAAEGGSAAVAQDHDSFEYHFHDTVAGGDWLCEQDVVDYFVHHCPTEMTQLELWGCPWSRRPDGSVNVRRFGGMKIERTWFAADKTGFHMLHTLFQTSLQFPQIQRFDEHFVLDILVDDGHVRGLVAMNMMEGTLVQIRANAVVMATGGAGRVYRYNTNGGIVTGDGMGMALSHGVPLRDMEFVQYHPAGLPGSGILMTEGCRGEGGILVNKNGYRYLQDYGMGPETPLGEPKNKYMELGPRDKVSQAFWHEWRKGNTISTPRGDVVYLDLRHLGEKKLHERLPFICELAKAYVGVDPVKEPIPVRPTAHYTMGGIETDQNCETRIKGLFAVGECSSVGLHGANRLGSNSLAELVVFGRLAGEQATERAATAGNGNEAAIEAQAAGVEQRLKDLVNQDGGENWAKIRDEMGLAMEEGCGIYRTPELMQKTIDKLAELQERFKRVRITDTSSVFNTDLLYTIELGHGLNVAECMAHSAMARKESRGAHQRLDEGCTERDDVNFLKHTLAFRDADGTTRLEYSDVKITTLPPAKRVYGGEADAADKAEAANKKEKANG	soluble
FGYIVELNWKLSKILNCQPEYVYPKLDELLGCLLTKKPLHEYGMKDEEVRGFAESVLKTQQRLLANNYVELTVDEIEGIYRRLY	not soluble
DIVEAQPSHPDKLLEVPLGRDISGMVQTADLSKMPHLLIAGSTGSGKSVAINGIITGILMQAKPHEVKLMMIDPKMVELNVYNGIPHLLTPVVTNPRKAAQALQKVVQEMEFRYEKFAATGVRNITGYNQLIQQKNAEDGENRPILPFIVVIVDELADLMMVASNEVEDAIIRLAQMARAAGIHMILATQRPSV	not soluble
KHDGIPAECTTIYNRGEHTSGMYAIRPSNSQVFHVYCDVISGSPWTLIQHRIDGSQNFNETWENYKYGFGRLDGEFWLGLEKIYSIVKQSNYVLRIELEDWKDNKHYIEYSFYLGNHETNYTLHLVAITGNVPNAIPENKDLVFSTWDHKAKGHFNCPEGYSGGWWWHDECGENNLNGKYNKPRAKSKPERRRGLSWKSQNGRLYSIKSTKMLIHPTDSESFE	soluble
MTVDDIMVPRSEIIGIDINDDWKSILRQLSHSPHGRIVLYRDSLDDAISMLRVREAWRLMSEKKEFTKETMLRAADEIYFVPEGTPLSTQLVKFQRNKKKVGLVVNEYGDIQGLVTVEDILEEIVGDFTTSMSPTLAEEVTPQNDGSVIIDGTANVREINKAFNWHLPEDDARTVNGVILEALEEIPVAGTRVRIGKYDIDILDVQDNMIKQVKVFPVKPLRESVAE	not soluble
MVTKFLIFVSENQQLTSKFNLVTRQNADLKIGLRGVLFSIQGLREELSVAKQRIEEMKEDSFFESMPKLEREAPAFMDSPAETSSPDVEMEDVVYEEVVKETEVANF	not soluble
MGSDKIHHHHHHMAKLCHKPLHILFFRHSLLGRGGDKMVVCQANALARRGHQVTIRTATLATPFSLDDRIEINLTGSSSVAATLMDLFKGRFSFDLLIVDIIPLAVLAGIRFGRTKVIYYVQDWDVSYYRSLAFRSLIRLLYFVERSFLRIPVIVVSEHLLGKIGRTGIGATYVVENGIDLTLFNSKGRLHPAFAPGHIPTFLLFIRNDWRKGSDLALKVVKKLADRYPHAFGVVAVGNRPAIRPSQIDWIDKGFMDERQIADLMKQCDLFLYPSRHEGFGLMALEAFACGCLVVTTTAVGFAHDIENSLVAEVDDEQGLYSRLCCLLEKQIEIAPLVKKAEEFASEHPLELCMDRFCSVIEELNQ	not soluble
GMSSNVSHFEGTRPVADQQRFDTEALEAWMRQHVEGFAGPLSVEQFKGGQSNPTFKLVTPGQTYVMRAKPGPKSKLLPSAHAIEREYRVMDALAGTDVPVAKMYALCEDESVIGRAFYIMEFVSGRVLWDQSLPGMSPAERTAIYDEMNRVIAAMHTVDYQAIGLGDYGKPGNYFQRQIERWTKQYKLSETESIPAMDSLMDWLPQHIPQEDADLTSIVHGDYRLDNLMFHPTEPRVLAVLDWELSTLGHPMGDFGYHCMSWHIAPGQFRGIAGLDHAALGIPDEASYRKLYEQRTGRPITGDWNFYLAFSMFRIAGILQGIMKRVVDGTASSAQALDAGKRARPMAEMGWEYAKKAKQ	soluble
MGSDKIHHHHHHMYGKTELMMSNACGLDFGTSNSTVGWTRPGHPAALLPLEDGKLTLPSVIFFHAEDPLVSYGRAALDDYLAGYEGRLMRSLKSLLGTSMMEDSTEVMGQAMPFRKLLAHFIGELKARAERSAGTTFTRAVLGRPVFFIDEDPAADRLAEQTLAEIARDAGFRDIEFQYEPIAAAFDYEAKISDEELVLVVDIGGGTSDFSLVRLSPERAKRIDRREDILANGGVHIGGTDFDRALSLARAMPLLGLGSKLRSGKEMPSSQYFDLASWHTINLVYTRKAWSIVMDNYRDAADTVKLDRLIRLIRERAGHWLAIQMEAAKIALSGVDRTDVDLHRIEPELMLSITRDEFDESIGKLVAKTEKTVTDMLASAGVDGASVDTILFTGGSSSVPMLRHQLGQLLPRARRVEGDLFGGIGSGLALDAARKFG	not soluble
MAEEGYKVVLNVYDLSNGLARQLSTSFLGKPIEAIWHTGVVVYGNEYFFGGGIQSLAAGRTPYGRPVRVVEMGETHIPREVFEDYLRDISPRYTAETYRLLSHNCNNFSNEVAQFLVGAGIPDYILNLPAEVMSSPMGPLIMPMIQNLESTLRTNAAPQATQFVPSSVPPPPPPQNKPGEGSSSSKQEDKAAKAKQGSAADPLGGARGKVQEEVMREFAAIMASGTLRASEAAALAMRRVMERHGNATMQQS	soluble
RVVTQNEIDRTIPVGAIMMWAADSLPSDAWRFCHGGTVSASDCPLYASRIGTRYGGSSSNPGLPDMRGLFVRGSGRGSHLTNPNVNGNDQFGKPRLGVGCTGGYVGEVQKQQMSYHKHAGGFGEYDDSGAFGNTRRSNFVGTRKGLDWDNRSYFTNDGYEIDPASQRNSRYTLNRPELIGNETRPWNISLNYIIKVKE	soluble
MDNKLSKIPTETFGEYIKRIRELRGYSQRKLSTLSDLSNTTICRIEKGSENGIENPDAETVVKLAEGLKLEKKALLIAAGYLDNENVEETTDLKECIRIALQKLGWINSYNDINEETITYVEFLLKKYGNKYKQIP	not soluble
GMSSKAEKDIKWGIAPIGWRNDDIPSIGKDNNLQQLLSDIVVAGFQGTEVGGFFPGPEKLNYELKLRNLEIAGQWFSSYIIRDGIEKASEAFEKHCQYLKAINAPVAVVSEQTYTIQRSDTANIFKDKPYFTDKEWDEVCKGLNHYGEIAAKYGLKVAYHHHMGTGIQTKEETDRLMANTDPKLVGLLYDTGHIAVSDGDYMALLNAHIDRVVHVHFKDVRRSKEEECRAKGLTFQGSFLNGMFTVPGDGDLDFKPVYDKLIANNYKGWIVVEAEQDPSKANPLEMAQIAHRYIKQHLIEN	soluble
MGSDKIHHHHHHMNVHVAVQTQAHRLDSNTAAFARDVLDGLTKPQKELSPKYFYDDTGSELFVEITRLPEYYPTRTELGILRDRAAEIAALIPPDAAIVEFGAGATTKIRLLLAAHQVAAYVPVDISGDFIITQAEALQRDFPQLAVHPLAADFTKPFALPPAVRDLPKVGFFPGSTIGNFEPQEARRFLESARDILGRGARMIIGVDLEKDENVLVPAYDDAAGVTGKFNLNLLIRINRELGADFDLSAFAHRAIYNRDQHRIEMHLVSLRDQSVHLFGERIGFRAGESIHTENSYKYSLERFRALAQQAGWTPARCWTDADAMFSVHAIETNGSRV	not soluble
YPDDLVIGNLSRRGFLKGVGATGVLLVAANWGWRDALAAEKKAFGADAMPHGWVDNPKIYVSIDRDGTVGIVCNRSEMGQGVRTSLAMVVADELEADWSRVKVIQAPGDEARYGNQDTDGSRSMRHWFEPMRRCGAAARQMLEQAAANQWKVPLGECRAEQNKVLHAPSGRSLSFGELAEAAAGLEVPARDKLLLKKPEQFRYIGKDVARAIDGADIVNGRAGFGFDARFDDMLYAVVARPPVYGGKLKRYDAAAALKVPGVVKVIEIEGRPIPSEFQPLGGVAVVAQNTWAAIKGREALVVEWDAGVNGGYDSVAYRKQLEEAARKPGKVVRDSGDAAALFAKGGDIVEAEYYLPHLAQAPMEPPVSTAWYKDGACEVWAPTQAPQVTRERIAERLKLPFDKVTVNVTLLGGGFGRKSKPDFVLEAAILAKAFPGRHLRVQWTREDDLHFSYFHTVSVERLQAVLGADGLPQAWLHRSVAPSITALFGPDSKHQGAFELGMGLTNLPFAIPNVRLENPEAPAHTRVGWFRSVSNIPHAFAIQSFVGELAAKAGQDPKDYLLKLLGPARRIDTAELGDSWNYGESPERYPLDVGRLRGVIEEAARQSGWGGELPRGRARGIAAHYSFVTYVAVVIEVEVKDDGALLVHKATIAADCGPQINPERIRSQLEGACVMGLGLAALGEISFKDGKVQQDNFHQYELARMPLAPKAVSVHLLKPDGDLPLGGVGEPGVPPIAPALCNAIFAATGKRIRELPI	not soluble
MKGVSRHVFVRIVQAIIMKHLVYCFKLDNDEFNLKNKYKKYKPCVTRVYDDLNTIYRYISNNKIINLEHHHHHH	not soluble
